{
  "source": "patent US20220135655A1",
  "about": "(Dana-Farber, published 2022)",
  "data": [
    {"biological_target": "A/California/04/2009 (H1CA0409) recombinant HA (influenza A virus A/California/04/2009, UniProt P26140 18-529)", "assay": "phage display panning (immunotube) against trimeric HA", "values": [
      {"binder": "2A1 (scFv) scFv: QVQLVQSGAEVKKPGSSVKVSCKASGVIFSSYAISWVRQAPGQGLEWMGGIIPIFGTANYAQKFQGRVTITADKSTSTAYMELSSLRSEDTAVYYCARGGSGSFDVWGQGTLVTVSSGGGSGGGSGGGSGGGSQPGLTQPPSASGTPGQRVTISCSGSSSNLGSNYVFWYQHLPGAAPKLLIYRNSQRPSGVPDRFSGSKSGTSASLAISGLQSEDEADYYCAAWDDSLNGVVFGGGTKLTVL", "binding result": "binds"},
      {"binder": "2A11 (scFv) scFv: QVQLVQSGAEVKKPGSSVKVSCKASGVTFSSYAISWVRQAPGQGLEWMGGISPVFGTANYAQKFQGRVTITADDSTNTAYMELSSLRSEDTAVYYCARSRGYTVSSLAGRYFDQWGQGTLVTVSSGGGSGGGSGGGSGGGSETTLTQSPGTLSLSPGERASLSCKASESLCSTCLAWYQQKPGQAPRLIVYGATSRATGIPDRFSGSGSGTDFTLTISRLEPEDFAVYYCQQYGSSPQTFGQGTKVEIK", "binding result": "binds"},
      {"binder": "2B6 (scFv) scFv: QVQLVQSGAEVKKPGSSVKVSCKASGGPFSSYAISWVRQAPGQGLEWMGGISPIFGTANYAQKFQGRVTITADKSTNTAYMELSSLRSEDTAVYYCARGRSYIVSVSPGFDVWGQGTLVTVSSGGGSGGGSGGGSGGGSQSVLTQPPSASGSPGQSVTISCTGTSSDVGGYNYVSWYQQYPGKAPKLMIYEVSKRPSGVPDRFSGSKSGTSASLAISELQSEDEADYYCASWDDSLNAYVFGSGTKVTVL", "binding result": "binds"},
      {"binder": "2C1 (scFv) scFv: QVQLVQSGAEVKKPGSSVKVSCKASGGIFSSYAISWVRQAPGQGLEWMGGISAIFGTANYAQKFQGRVTITADESTSTAYMELSSLRSEDTAVYYCARDSGIASGYTAYMDYWGQGTLVTVSSGGGSGGGSGGGSGGGSSSELTQDPAVSVALGQTVRITCQGDSLRTSYASWYQQKPGQSPVLVIYQSTKRPSGIPERFSASSSGNTASLTITGAQAEDEADYYCNSRGSGGNPYVFGTGTKVTVL", "binding result": "binds"},
      {"binder": "2E11 (scFv) scFv: QVQLVQSGAEVKKPGSSVKVSCKASGGTFSSYAISWVRQAPGQGLEWMGGINPIFGTANYAQKFQGRVTITADESTNTAYMELSSLRSEDTAVYYCARGESAYYSRNYDVWGQGTLVTVSSGGGSGGGSGGGSGGGSSYELTQPPSVSKGLRQTATLTCTGNSSNVGNQGASWLQQHQGHPPKLLSYRNDNRPSGISERFSASRSGNTASLTITGLQPEDEADYYCSAWDNSLSAWVFGGGTKLTVL", "binding result": "binds"},
      {"binder": "2E12 (scFv) scFv: QVQLVQSGAEVKKPGSSVKVSCKASGVTFSSYAISWVRQAPGQGLEWMGGISPMFGTANYAQKFQGRVTITADESTNTAYMELSSLRSEDTAVYYCARGGGYYPAGVGRYDVWGQGTLVTVSSGGGSGGGSGGGSGGGSDIVMTQSPDSLAVSLGERATINCKSSQNVLYSSNNKNNLAWYQQRPGQPPKVLLYWASTRASGVPDRFSGSGSGTDFTLTINSLQAEDVALYYCQQYYGKPFTFGPGTKVEIK", "binding result": "binds"},
      {"binder": "2F1 (scFv) scFv: QVQLVQSGAEVKKPGSSVKVSCKASGGTFSSYAISWVRQAPGQGLEWMGGITPLFGTANYAQKFQGRVTITADDSTSTAYMELSSLRSEDTAVYYCARGPTLYSPPVFDVWGQGTLVTVSSGGGSGGGSGGGSGGGSQTVVTQEPSFSVSPGGTITLTCGLSSGSVSTTNYPSWYQQTPGRTPRTLIYNTNTRSSGVPDRFSGSILGNKAALTITGAQAGDESDYYCVLYMGRGIYVFGSGTKVSVL", "binding result": "binds"},
      {"binder": "2G3 (scFv) scFv: QVQLVQSGAEVKKPGSSVKVSCKASGGTFRSYAISWVRQAPGQGLEWMGGIMPIFGTANYAQKFQGRVTITADESTTTVYMELSSLRSEDTAVYYCARGAGVSAGPSWPFDVWGQGTLVTVSSGGGSGGGSGGGSGGGSQPGLTQPPSVSKDLRQTATLTCTGNSNNVGKQGATWLQQHQGHPPKLLSYRNNNRPSGISERFSASRSGDTASLTITGLQPEDEADYYCSAWDSSLSVWVFGGGTKLTVL", "binding result": "binds"},
      {"binder": "2H3 (scFv) scFv: QVQLVQSGAEVKKPGSSVKVSCKASGGPFSSYAISWVRQAPGQGLEWMGGIIPIFGTANYAQKFQGRVTITADESTSTAYMELSSLRSEDTAVYYCARGTDYSGYRGFDVWGQGTLVTVSSGGGSGGGSGGGSGGGSQTVVTQEPSFSVSPGGTVTLTCALSSGSVSSFNYASWYQQTPGQAPRTLISNTNTRSSGVPDRFSGSILGNKATLTITGAQADDESHYYCALYVGGGISVFGGGTKLTVL", "binding result": "binds"},
      {"binder": "2H4 (anti-H1CA0409) (scFv) scFv: QVQLVQSGAEVKKPGSSVKVSCKASGVTFSSYAISWVRQAPGQGLEWMGGITPIFGTANYAQKFQGRVTITADQSTSTAYMELSSLRSEDTAVYYCARGGGVFDVWGQGTLVTVSSGGGSGGGSGGGSGGGSSYELTQPPSVSGAPRQRVTISCSGSSSNIGNNAVNWYQQLPGKAPKLLIYYDDMLPSGVSDRFSGSKSGSSASLAISGLQSEDEADYYCAAWDDSLSGPVFGGGTNLTVL", "binding result": "binds"},
      {"binder": "4C4 (scFv) scFv: QVQLVQSGAEVKKPGSSVKVSCKASGGTFSSYAISWVRQAPGQGLEWMGGISPMFGTANYAQKFQGRVTITADKSTSTAYMELSSLRSEDTAVYYCAREGGYSPGGVDFDYWGQGTLVTVSSGGGSGGGSGGGSGGGSNFMLTQPHSVSESPGKTVTISCTRSSGSIASTYVQWYRQRPGSAPTTVIYEDHQRPSGVPDRFSGSLDSSSNSASLTISGLRTEDAATYYCQSFDASTLVFGGGTKLTVL", "binding result": "binds"},
      {"binder": "4F5 (scFv) scFv: QVQLVQSGAEVKKPGSSVKVSCKASGVTFRSYAISWVRQAPGQGLEWMGGISGIFGTANYAQKFQGRVTITADESTSTAYMELSSLRSEDTAVYYCARSPAYYFGPNMDVWGQGTLVTVSSGGGSGGGSGGGSGGGSQSVLTQPPSVSGAPGQRVTISCTGSSSNIGAGYDVHWYQQLPGTVPKLIIYDNSNRPSGVPARFSGSKSGTSASLAISGLQSEDEAAYYCQSYDSSLSVVVFGGGTKLSVL", "binding result": "binds"},
      {"binder": "5A8 (scFv) scFv: QVQLVQSGAEVKKPGSSVKVSCKASGGTFSSYAISWVRQAPGQGLEWMGGISPIFGTANYAQKFQGRVTITADESTSTVYMELSSLRSEDTAVYYCARGPGYHPAGASGQFFDLWGQGTLVTVSSGGGSGGGSGGGSGGGSSYELTQPPSVSKDLRQTATLTCTGNSNNVGNQGAAWLQQHQGHPPKLLSYRNNHRPSGISDRSSASRSGDTASLTITGLQPEDEADYYCSAWDSSLSAWVFGGGTKLTVL", "binding result": "binds"},
      {"binder": "5B9 (scFv) scFv: QVQLVQSGAEVKKPGSSVKVSCKASGVTFSSYAISWVRQAPGQGLEWMGGISPMFGTANYAQKFQGRVTITADESTNTAYMELSSLRSEDTAVYYCARGRGYAPDALTNFDVWGQGTLVTVSSGGGSGGGSGGGSGGGSEIVLTQSPDSLAMSLGERATVNCKSSRSLFDSSDNKNYLAWYQKKPGQPPQLLIYWASTRQSGVPDRFSGSGSGTDFTLTISSLQAEDVAVYYCQQYFSSPPIFTFGPGTKVEIK", "binding result": "binds"},
      {"binder": "6F3 (scFv) scFv: QVQLVQSGAEVKKPGSSVKVSCKASGGPFSSYAISWVRQAPGQGLEWMGGISPMFGTANYAQKFQGRVTITADESTSTVYMELSSLRSEDTAVYYCARGYSYYPGGGGGRNFDYWGQGTLVTVSSGGGSGGGSGGGSGGGSLPVLTQPPSASGTPGQRVTISCSGSSSNIGSNTVNWYQQLPGTAPKLLIYSNNQRPSGVPDRFSGSKSGTSASLAISGLQSEGEADYYCAAWDDSLKGRVFGGGTKVTVL", "binding result": "binds"},
      {"binder": "9H3 (scFv) scFv: QVQLVQSGAEVKKPGSSVKVSCKASGGIFSSYAISWVRQAPGQGLEWMGGISPIFGTANYAQKFQGRVTITADESTNTAYMELSSLRSEDTAVYYCARSGGYYDYGVGYDQWGQGTLVTVSSGGGSGGGSGGGSGGGSQPVLTQPPSASGTPGQRVTISCSGGRSNIGSNTVNWYQQLPGTAPKLLIYSNNHRPSGVPDRFSGSKSGNTASLTISGLQAEDEADYYCQSYDSSVVFGGGTKLTVL", "binding result": "binds"}
    ]}
  ]
}
